Here are results for 6 molecules from patent CN110974958A (BEIJING DONGFANG BIOTECH CO LTD, dated 2020).

Test [1] addresses T1, PD-L1 (UniProt Q9NZQ7 19-238, limits assumed). Nature of the test: cell-based or functional assay.
The target in test [2] is T1, PD-L1. Nature of the test: ELISA, PD-L1 coated 100 ng/well, full antibody titrated from 1 ug/ml, Anti-Human Fc-HRP.
The target in a further test is T2, PD-L1-Fc (UniProt Q9NZQ7 19-238, limits assumed).
T2 construct: not shown: Fc part
Nature of the test: competition ELISA, PD-L1-Fc coated 200 ng/well, competitor PD-1-His 5 ug/ml, anti-His-HRP.

T2 sequence (Q9NZQ7 19-238 limits assumed): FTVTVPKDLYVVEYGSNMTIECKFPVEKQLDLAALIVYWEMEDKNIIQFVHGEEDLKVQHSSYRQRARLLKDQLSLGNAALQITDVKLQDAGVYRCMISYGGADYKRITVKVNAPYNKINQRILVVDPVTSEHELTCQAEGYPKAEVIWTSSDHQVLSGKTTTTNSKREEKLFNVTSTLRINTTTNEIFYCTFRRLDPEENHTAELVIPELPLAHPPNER
T1 sequence (Q9NZQ7 19-238 limits assumed): as above

B1: BH2-B11 全抗体 (full antibody, human IgG1/kappa) (antibody, V domains shown)
VH: EVQLVESGGGLVQPGGSLRLSCAASGLTWSDSYKHWVRQAPGKGLEWVHWNSTYGGSTYYADSVKGRFTISADTSKNTAYLQMNSLRAEDTAVYYCARRHFASTWDYWGQGTLVTVSS
VL: DIQMTQSPSSLSASVGDRVTITCRASQNIHNSLAWYQQKPGKAPKLLIYGASSLESGVPSRFSGSGSGTDFTLTISSLQPEDFATYYCQQERRVPWTFGQGTKVEIKR
notes: Full antibody expressed in HEK293E from vector pTSE
As for B1, in the test with PD-L1 [1], the “EC50(ng/ml), 混合淋巴细胞反应(MLR), CD4+ T细胞增殖 (cck8)” value (shortened to “EC50(ng/ml), 混合淋巴细胞反应(MLR)”) was found to be 6.73 ng/mL. Further, the half-maximal effective concentration (EC50) with PD-L1 [2] is 0.535 ng/mL. This molecule returned an IC50 in the test with PD-L1-Fc of 61.2 ng/mL.

B2: AH10-E3 全抗体 (full antibody, human IgG1/kappa) (antibody, V domains shown)
VH: EVQLVESGGGLVQPGGSLRLSCAASGWTLSDSLQHWVRQAPGKGLEWVGFQSAYGGSTYYADSVKGRFTISADTSKNTAYLQMNSLRAEDTAVYYCARRHYYTAWDYWGQGTLVTVSS
VL: DIQMTQSPSSLSASVGDRVTITCRASQSIHNYLAWYQQKPGKAPKLLIYSASNLPSGVPSRFSGSGSGTDFTLTISSLQPEDFATYYCQQGLHTPPTFGQGTKVEIKR
notes: as for B1
In the case of B2, the “EC50(ng/ml), 混合淋巴细胞反应(MLR)” value with PD-L1 [1] came to 11.4 ng/mL. Besides, the EC50 with PD-L1 [2] is 1.91 ng/mL. Besides, the IC50 with PD-L1-Fc is 136 ng/mL.

B3: AC9-E3 全抗体 (full antibody, human IgG1/kappa) (antibody, V domains shown)
VH: EVQLVESGGGLVQPGGSLRLSCAASGCTWSDSWDHWVRQAPGKGLEWVDYESTYGGSTYYADSVKGRFTISADTSKNTAYLQMNSLRAEDTAVYYCARRHWNATFDYWGQGTLVTVSS
VL: DIQMTQSPSSLSASVGDRVTITCRASQSIHNYLAWYQQKPGKAPKLLIYSASNLPSGVPSRFSGSGSGTDFTLTISSLQPEDFATYYCQQGLHTPPTFGQGTKVEIKR
notes: as for B1
Consider B3, for which the “EC50(ng/ml), 混合淋巴细胞反应(MLR)” value with PD-L1 [1] was found to be 11.9 ng/mL. Besides, the EC50 in the test with PD-L1 [2] came to 2.17 ng/mL. The molecule further came in with a 50% inhibitory concentration (IC50) with PD-L1-Fc of 138 ng/mL.

B4: AC9-B11 全抗体 (full antibody, human IgG1/kappa) (antibody, V domains shown)
VH: EVQLVESGGGLVQPGGSLRLSCAASGCTWSDSWDHWVRQAPGKGLEWVDYESTYGGSTYYADSVKGRFTISADTSKNTAYLQMNSLRAEDTAVYYCARRHWNATFDYWGQGTLVTVSS
VL: DIQMTQSPSSLSASVGDRVTITCRASQNIHNSLAWYQQKPGKAPKLLIYGASSLESGVPSRFSGSGSGTDFTLTISSLQPEDFATYYCQQERRVPWTFGQGTKVEIKR
notes: as for B1
On to B4, for which the “EC50(ng/ml), 混合淋巴细胞反应(MLR)” value with PD-L1 [1] is 7.58 ng/mL. This molecule also yielded an EC50 with PD-L1 [2] of 0.574 ng/mL. Further, the IC50 with PD-L1-Fc worked out at 82 ng/mL.

B5: BH2-E3 全抗体 (full antibody, human IgG1/kappa) (antibody, V domains shown)
VH: EVQLVESGGGLVQPGGSLRLSCAASGLTWSDSYKHWVRQAPGKGLEWVHWNSTYGGSTYYADSVKGRFTISADTSKNTAYLQMNSLRAEDTAVYYCARRHFASTWDYWGQGTLVTVSS
VL: DIQMTQSPSSLSASVGDRVTITCRASQSIHNYLAWYQQKPGKAPKLLIYSASNLPSGVPSRFSGSGSGTDFTLTISSLQPEDFATYYCQQGLHTPPTFGQGTKVEIKR
notes: as for B1
B5: the “EC50(ng/ml), 混合淋巴细胞反应(MLR)” value in the test with PD-L1 [1] came to 7.71 ng/mL. The same molecule yielded an EC50 with PD-L1 [2] of 1.23 ng/mL. The IC50 with PD-L1-Fc is 92.7 ng/mL.

B6: AH10-B11 全抗体 (full antibody, human IgG1/kappa) (antibody, V domains shown)
VH: EVQLVESGGGLVQPGGSLRLSCAASGWTLSDSLQHWVRQAPGKGLEWVGFQSAYGGSTYYADSVKGRFTISADTSKNTAYLQMNSLRAEDTAVYYCARRHYYTAWDYWGQGTLVTVSS
VL: DIQMTQSPSSLSASVGDRVTITCRASQNIHNSLAWYQQKPGKAPKLLIYGASSLESGVPSRFSGSGSGTDFTLTISSLQPEDFATYYCQQERRVPWTFGQGTKVEIKR
notes: Full antibody expressed in HEK293E from vector pTSE; also called AH10-811
For the molecule B6, the “EC50(ng/ml), 混合淋巴细胞反应(MLR)” value in the test with PD-L1 [1] was determined as 9.88 ng/mL. Also, the response in the test with PD-L1 [2] was half-maximal at 1.43 ng/mL (EC50). The IC50 with PD-L1-Fc was found to be 108 ng/mL.
